For data set [1], the system named is T1, GST-SfbR (Streptomyces filipinensis DSM 40112), ORF:e6e403b8.
T1 sequence: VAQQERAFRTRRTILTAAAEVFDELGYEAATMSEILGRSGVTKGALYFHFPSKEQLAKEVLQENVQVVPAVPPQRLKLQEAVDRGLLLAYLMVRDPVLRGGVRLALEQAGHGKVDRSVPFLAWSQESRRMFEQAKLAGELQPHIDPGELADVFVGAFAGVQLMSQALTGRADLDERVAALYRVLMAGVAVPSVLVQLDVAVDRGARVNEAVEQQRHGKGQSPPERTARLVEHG
In words: EMSA. Particulars: EMSA: 100 mM HEPES pH 7.6, 10 mM KCl, 5 mM MgCl2, 1 mM DTT, 1% Tween 20, 7.8 mM glutathione, 40 ug/ml poly[d(I-C)], 5% glycerol, 30 C, 10 min; 0.005 ng/ul ….

Data set [2] relates to T2, GST-SfbR2 (Streptomyces filipinensis DSM 40112), ORF:2e1db1fa.
T2 sequence: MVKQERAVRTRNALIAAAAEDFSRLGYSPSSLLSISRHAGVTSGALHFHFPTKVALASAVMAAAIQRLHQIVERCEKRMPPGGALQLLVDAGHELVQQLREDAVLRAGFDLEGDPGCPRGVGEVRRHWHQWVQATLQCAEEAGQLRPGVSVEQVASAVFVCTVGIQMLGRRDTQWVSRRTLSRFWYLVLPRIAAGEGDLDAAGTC
Put plainly: EMSA. Particulars: EMSA: 100 mM HEPES pH 7.6, 10 mM KCl, 5 mM MgCl2, 1 mM DTT, 1% Tween 20, 7.8 mM glutathione, 40 ug/ml poly[d(I-C)], 5% glycerol, 30 C, 10 min; 0.005 ng/ul ….

For “GCGTGCTGCCCAGCCGTGCTGCAAAGCCGCCGAGTACTTCGATGTCCATCTCTCTCCCCCAGATCCGTACGCGCGGGGCCCGTCAGGCACGCGCGGGGTGTGGCGTAGCTCAGGGAACTCGGGACTTGCTTGACCACCAAATTAAACAGCATGGCCGGTTCTTTCTCCAGTGGAACCCGAGGATCCGTGCCGGCGCCGCCCGCGGCCCGCGCCGCGGGGCGCGGGTCCGCGGTCGGCGTCCTCGCAGGTCTGTCCGTGTGCCGGGGTGGTGTGC (double strand) [sfb7p]”, the binding result in data set [1] and in data set [2] was “binds” throughout.
